Assay results: CN112159475A (NANJING KAEDI BIOTECH INC, dated 2021)
Substitutions are numbered along the chain they refer to.

T1: 融合至人IgG1 Fc段的人Siglec-15胞外结构域的重组蛋白Siglec-15-Fc (human, UniProt Q6ZMC9 20-263)
T1 construct: extracellular domain; also called 人Siglec-15重组蛋白; Siglec-15-Fc重组蛋白; not shown: human IgG1 Fc segment
T1 sequence (looked up): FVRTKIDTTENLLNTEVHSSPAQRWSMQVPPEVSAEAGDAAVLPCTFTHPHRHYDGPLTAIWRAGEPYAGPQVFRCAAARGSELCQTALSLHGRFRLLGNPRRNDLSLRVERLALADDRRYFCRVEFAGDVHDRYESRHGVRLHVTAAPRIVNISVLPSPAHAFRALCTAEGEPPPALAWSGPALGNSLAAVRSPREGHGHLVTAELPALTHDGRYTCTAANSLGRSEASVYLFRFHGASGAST

B1: KD075-C30 (antibody, V domains shown)
VH: DVQLVESGGGLVQPGGSRKLSCAASGFTFSSFGMHWVRQAPEKGLEWVAYISSGSSSIYYADTVKGRFTISRDNPKNTLFLQMTSLRSEDTAMYYCARTFPMDYWGQGTSVTVSS
VL: QAVVTQESALTTSPGETVTLTCRSSTGAVTISNYANWVQEKPDHLFTGLIGGTYNRSPGVPARFSGSLIGDKAALTITGAQTEDEAIYFCALWYSNHWVFGGGTKLTVL
B2: KD075-C31 (antibody, V domains shown)
VH: B1 VH with G16T, A23T, M93I
VL: B1 VL
B3: KD075-C46 (antibody, V domains shown)
VH: EVKLVESEGGLVQPGSSMKLSCTASGFTFSDYYMAWVRQVPEKGLEWVAKINYDGSSTYYLDSLKSRFIISRDNAKNILYLQMSSLKSEDTATYYCARSYDYDGYYFDYWGQGTTLTVSS
VL: DIVLTQSPASLAMSLGKRATISCRASESVSIIGTNLIHWYQQKPGQPPKLLIYHASNLETGVPARFSGSGSRTDFTLTIDPVEEDDVAIYYCLQSRKIPWTFGGGTKLEIK
B4: KD075-C52 (antibody, V domains shown)
VH: EVQLVESGGGLVKPGGSLKLSCAASGFTFSYYAMSWVRQTPEKRLEWVATVSDVDDYTYYPDNVKGRFNISRDNAKNNLYLQMRHLKSEDTAMYYCVRDGSYGWYFDVWGTGTTVTVSS
VL: DIVMTQSPSSLTVTAGEKVTMSCKSSQSLLNSGNQKNYLTWYQQKPGQTPKLLIYWASTRESGVPDRFTGSGSGTDFTLTISSVQAEDLAVYYCQNDYSYPLTFGTGTKLELK
B5: KD075-C9 (antibody, V domains shown)
VH: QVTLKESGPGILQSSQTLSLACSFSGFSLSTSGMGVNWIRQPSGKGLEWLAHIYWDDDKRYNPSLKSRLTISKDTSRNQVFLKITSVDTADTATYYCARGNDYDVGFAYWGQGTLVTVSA
VL: DIVMTQSHKFMSTSVGDRVSITCKASQDVSTAVVWYQQKPGQSPKLLIDSASYRYTGVPDRFTGSGSGTDFTFTISSVQAEDLAVYYCQQHYSTPRTFGGGTKLEIK
B6: KD075-C18 (antibody, V domains shown)
VH: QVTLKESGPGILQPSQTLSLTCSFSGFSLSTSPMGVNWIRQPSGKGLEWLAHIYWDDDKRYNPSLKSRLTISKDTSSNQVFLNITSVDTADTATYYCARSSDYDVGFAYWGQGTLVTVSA
VL: B5 VL with V34A, P40L, D49S
B7: KD075-C40 (antibody, V domains shown)
VH: EVRLQQSGPELVKPGASVKISCKASGYTFTDYNIHWMKQSHGKSLEWIGYIYPSFGGTAYNQKFKSKATLTVDNSSSTAYMEFRSLTSEDSAVYFCAVYGNYEGFAYWGQGTLVTVSA
VL: ENVLTQSPAIMSASLGEKVTMSCRASSSVNYMYWYQQKSDASPKLWIYYTSNLAPGVPARFSGSGSGNSYYLTISSMEGEDAATYYCQQFTSSPWTFGGGTKLEIK

Target: T1, 融合至人IgG1 …
Assay: indirect ELISA, plate coated with 0.5 ug/ml Siglec-15-Fc, purified antibody titrated from 10 ug/ml

| Binder | EC50 |
| --- | --- |
| B1 | 2.27 ng/mL |
| B2 | 2.4 ng/mL |
| B3 | 2.29 ng/mL |
| B4 | 2.25 ng/mL |
| B5 | 1.97 ng/mL |
| B6 | 2.3 ng/mL |
| B7 | 2.41 ng/mL |
